The text below walks through data of US20220235138A1, “CAR-T CELLS TARGETING IL-1RAP AND THEIR USE IN ACUTE MYELOID LEUKEMIA (AML)” (ETABLISSEMENT FRANCAIS DU SANG, priority 2019, published 2022).

Data set [1] has as its target T1, IL-1RAP recombinant protein (Homo sapiens, UniProt Q9NPH3).
T1 construct: recombinant fusion protein consisting of the extra cellular part of IL-1RAP (NM_002182.2, NCBI) and the Fc-part of human IgG1; purchased R&D Systems
T1 sequence (Q9NPH3 21-367 limits assumed): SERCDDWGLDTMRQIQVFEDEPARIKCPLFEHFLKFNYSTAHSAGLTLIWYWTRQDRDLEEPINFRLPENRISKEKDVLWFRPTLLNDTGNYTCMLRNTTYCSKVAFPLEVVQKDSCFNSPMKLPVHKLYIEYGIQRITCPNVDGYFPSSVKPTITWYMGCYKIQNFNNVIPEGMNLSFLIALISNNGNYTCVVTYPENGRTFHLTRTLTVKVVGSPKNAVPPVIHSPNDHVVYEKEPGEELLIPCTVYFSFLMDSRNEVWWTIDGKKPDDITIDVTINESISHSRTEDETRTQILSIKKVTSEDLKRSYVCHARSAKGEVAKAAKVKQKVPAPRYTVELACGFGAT
Kind of data set: ELISA detection of recombinant IL-1RAP protein. Format: binding. The text has this:
Anti-human Fc antibody was coated on a bottom of a plastic ELISA plate.

Another data set concerns AML blasts. Put plainly: Flow cytometry on primary cells from AML patients. Format: cell-based, human. The conditions noted are these: all subtypes, n=30. An excerpt:
FIG. 3: Flow cytometry-gating strategy on AML primary samples of patients. RFI is provided for blasts and monocytes subpopulations (Left). Percentage of IL-1RAP+ within AML blasts and monocytes, CD123+ and IL-1RAP+/CD123+ cells within AML Blasts in a cohort of routine AML (all subtypes) patients (n=30) (Right, up). RFI is also provided (Right, bottom).
For primary samples of bone marrow or peripheral bloods of AML patients, the murine IL-1RAP mAb (#E3C3) was included in a panel allowing to detect CD45, CD34, CD38, CD33, CD123, and CD14 (for monocytes). Stained cells were collected by a CANTO II cytometer (BD Biosciences, Le Pont-de-Claix, France) and analyzed by DIVA 6.1 software (BD Biosciences, Le Pont-de-Claix, France).
(In flow cytometry, cells or beads pass a laser one at a time.)

A further data set relates to IL-1RAP. Put plainly: Western blotting and cell surface staining of AML cell lines. Format: binding, human. An excerpt:
Whole cellular lysates of different AML or CML (positive control) hematopoietic cell lines were separated by polyacrylamide gel electrophoresis and electrotransferred onto polyvinylidene difluoride membranes. Membranes were probed overnight with primary IL-1RAP #A3C3 (diluted at 1:20). Twenty micrograms of protein were electrophoresed on sodium dodecyl-sulfate polyacrylamide gels (SDS-PAGE), and then sonicated protein fractions were suspended in RIPA buffer supplemented with a protease inhibitor cocktail (complete Mini EDTA-free; Roche, Bale, Switzerland). Protein load in the western blot lane was evaluated with β-actin mAb staining (1:1000, clone AC15, #A5441, Sigma-Aldrich). Immunodetection staining was performed with a secondary polyclonal antibody sheep anti-mouse IgG (#515-035-062, Jackson). Enhanced chemiluminescence detection reagents allowed detection with a camera and Bio-1D software (Vilber-Lourmat, Collegien, France).
IL-1RAP cell surface staining of different hematopoietic AML cell lines was performed, using #A3C3 mAb and IL-1RAP murine mAb as staining comparison.
Relative Fluorescence Intensity (RFI) between IL-1RAP staining and isotype was calculated. IL-1RAP+ (KU812) or IL-1RAP-(Raji) cell lines were used as positive or negative controls respectively.
On the technique in general: Immunoblotting shows a protein as a band on a membrane.

Data set [2] relates to HMEC-1 endothelial cell line. Kind of data set: Flow cytometry staining of HMEC-1 dermal endothelial cell line. Conditions: microvascular HMEC-1 endothelial cell line. Format: binding, human. An excerpt:
FIG. 13: (A) Tissue microarray. Representative #A3C3 staining of an US Food and Drug Administration standard frozen tissue array, including 90 tissue cores (30 organs) of 3 individual donors per organ (US Biomax, Rockville, Md., USA). Immunostaining was detected using the UltraView Universal DAB Detection Kit (Ventana, USA). Images were acquired and analyzed with NDP.view 2.0 software. […] (Scale bars, 100 μm.) High IL-1RAP (KU812) or negative (Raji)-expressing cell lines were respectively used as positive or negative controls. (B) IL-1RAP R&D (red) or #A3C3 (blue) staining of HMEC-1 dermal endothelial cell line. Isotype IgG1 (gray) is depicted as overlay. RFI is provided for both staining.
In order to predict off-target toxicity, we used the #A3C3 mAb to investigate IL-1RAP expression using a tissue macroarray (TMA) of 30 normal human tissues.

The test system of data set [3] is healthy hematopoietic cells (HSCs, monocytes). Kind of data set: IL-1RAP cell surface staining of healthy donor peripheral blood and bone marrow cells. Format: binding. Here is the method:
(A) IL-1RAP cell surface expression on peripheral blood (left) or bone marrow (right) cells from healthy donors (n=5). SSC-A/CD45+ allowed discrimination of subpopulations as lymphocytes (SSC-A low), monocytes (CD33+), granulocytes (SSC-A high), or HSCs (CD33−/CD34+). RFI was calculated from isotype staining and provided in each window. (B) Representative (1 of 3) IL-1RAP staining of whole human cord blood cells. IL-1RAP staining is provided for whole CD34+, CD34+/CD38−, and CD34+/CD38+ HSC cord blood subpopulations. (C) IL-1RAP-positive cells among CD34+ cells in cord blood (CB, n=5) or bone marrow (BM) from healthy donors (n=5) compared to CD34+ cells from the BM (n=10) or peripheral blood (PB, n=10) from CML patients. […] Percentages were calculated using absolute cell number determined using Trucount tubes based on 5000 fluorescent-bead cytometry acquisition. (F) Left, Gating strategy and analysis for absolute count of CID AP1903-induced cell death. […] The quantification was performed after acquiring 5000 fluorescent beads. Killing efficiency was normalized to control cells (untreated cells). Cell killing was calculated as follows: % Dead cells=[1−(absolute number of viable cells in AP1903-treated cells/absolute number of viable cells in untreated cells)]×100. (D) Absolute percentage of mortality. 24 h or 48 h C0 or IL-1RAP CAR (gated on CD3+/CD19+) T cell CID exposure. […]

A value given as a limit tells only on which side of the number the result lay.

IL-1RAP, sequence (Q9NPH3 21-570): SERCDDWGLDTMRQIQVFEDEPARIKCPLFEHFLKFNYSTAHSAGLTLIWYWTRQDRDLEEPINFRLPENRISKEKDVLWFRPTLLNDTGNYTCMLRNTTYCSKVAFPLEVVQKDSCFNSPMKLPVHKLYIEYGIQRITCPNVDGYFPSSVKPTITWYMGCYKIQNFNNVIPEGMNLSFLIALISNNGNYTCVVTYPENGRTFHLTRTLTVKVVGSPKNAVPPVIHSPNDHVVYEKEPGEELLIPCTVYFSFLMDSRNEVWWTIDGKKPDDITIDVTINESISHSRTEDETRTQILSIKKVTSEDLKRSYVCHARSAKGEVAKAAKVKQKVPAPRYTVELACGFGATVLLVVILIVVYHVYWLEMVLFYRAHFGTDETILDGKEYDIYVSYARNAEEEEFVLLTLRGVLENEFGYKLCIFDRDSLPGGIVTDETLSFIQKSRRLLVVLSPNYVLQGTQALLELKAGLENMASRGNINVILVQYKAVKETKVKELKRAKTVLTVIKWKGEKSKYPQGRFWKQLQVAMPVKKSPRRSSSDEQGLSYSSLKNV

B1: #A3C3: mouse anti-hIL-1RAP monoclonal antibody generated by standard hybridoma technique; VH SEQ ID No 2, VL SEQ ID No 4 (antibody, V domains shown)
VH: MGWSCIILFLVATATGVNSQVQLQQPGAELMMPGASVKVSCEASGYTFTDSWMHWVKQRPGQGLEWIGAIDPSDSYTTYNQKFTGKATLSVDESSNTAYMQLSSLTSEDSAVYYCARYYSGSNYISPFPYWGQGTLVTVSA
VL: MESQIQVFVFVFLWLSGVDGDIVMTQSHKFMSTSVGDRVTITCKASLDVSTAVAWYQQKPGQSPKLLIYSASYRYTGVPDRFTGSGSGTDFTFTISSVQAEDLAVYYCQQHYSPPFTFGSGTNLEIK
modifications: Amino acid sequence of chain H (VH) of murine scFv anti-IL-1RAP; Amino acid sequence of chain K (VL) of murine scFv anti-IL-1RAP
Turning to B1, in data set [1], the “recognition of IL-1RAP recombinant protein” value is given as “recognize the IL-1RAP recombinant protein”. The “presence of IL-1RAP on AML blasts, percentage” value in the data set with AML blasts came to 84.27±17.4%. For the same molecule, the “staining of AML cell lines expressing IL-1RAP at the cell surface” value in the data set with IL-1RAP is “able to stain different AML cell lines”. The “recognition of cell surface IL-1RAP on HMEC-1” value in data set [2] is on record as “not recognized”. Moreover, the RFI in data set [3] (HSCs in bone marrow from healthy donors, n=5) was less than 1.2; in data set [3] (monocyte subpopulation, weak staining in 2/5 peripheral blood and 3/5 bone marrow from healthy donors), less than 2.
